According to patent US20200123237A1:

Biological target: IgG1-S4497 (human)
Experiment: cell-based or functional assay

- EC50 of C3b deposition on Wood 46, purified classical pathway system: 0.668 µg/mL
- EC50 of C4b deposition on Wood 46, purified classical pathway system: 0.886 µg/mL
- EC50 of neutrophil-mediated phagocytic uptake of Wood 46, NHS devoid of IgG and IgM: 0.144 µg/mL
- EC50 of neutrophil-mediated phagocytic uptake of Wood 46, intact NHS: 0.096 µg/mL
B1: IgG1-S4497 (antibody, not shown: a dimerising Fc or GST)
heavy: EVQLVESGGGLVQPGGSLRLSCSASGFSFNSFWMHWVRQVPGKGLVWISFTNNEGTTTAYADSVRGRFIISRDNAKNTLYLEMNNLRGEDTAVYYCARGDGGLDDWGQGTLVTVSS
light: DIQLTQSPDSLAVSLGERATINCKSSQSIFRTSRNKNLLNWYQQRPGQPPRLLIHWASTRKSGVPDRFSGSGFGTDFTLTITSLQAEDVAIYYCQQYFSPPYTFGQGTKLEIK
